Measurements taken from the Human Domainome abundance scans (Beltran et al. 2025).
± gives the uncertainty stated by the source.

B1: Poly(rC)-binding protein 1, residues 278 to 350; numbered along this chain, Q15365 (parent)
chain: TQTTHELTIPNNLIGCIIGRQGANINEIRQMSGAQIKIANPVEGSSGRQVTITGSAASISLAQYLINARLSSE

Variants of: B1
Experiment: abundance fitness (aPCA) (normalised: wild type 0, dead -1); higher = more abundant; growth selection in yeast, the domain comes from the species named
Conditions: Homo sapiens

Variant | abundance fitness
G15Y | -0.046 ± 0.097
G15D | 0.002 ± 0.093
G15E | -0.062 ± 0.05
G15H | -0.072 ± 0.12
G15A | -0.092 ± 0.047
G15N | 0.016 ± 0.15
G15W | -0.14 ± 0.054
G15F | -0.438 ± 0.24
G15K | -0.083 ± 0.083
G15R | -0.136 ± 0.043
G15T | -0.03 ± 0.073
G15L | -0.465 ± 0.071
G15M | 0 ± 0.065
G15C | -0.353 ± 0.093
G15S | -0.035 ± 0.051
G15Q | -0.162 ± 0.073
G15I | -0.751 ± 0.32
G15V | -0.526 ± 0.066
G19W | -0.831 ± 0.13
G19M | -0.774 ± 0.17
G19V | -0.991 ± 0.12
G19T | -0.732 ± 0.15
G19I | -0.583 ± 0.25
G19E | -0.431 ± 0.091

Variant | abundance fitness
G19S | -0.473 ± 0.082
G19A | -0.481 ± 0.068
G19K | -0.194 ± 0.13
G19P | -0.423 ± 0.1
G19H | -0.833 ± 0.5
G19N | -0.655 ± 0.35
G19Q | -0.532 ± 0.11
G19L | -0.815 ± 0.13
G19R | -0.609 ± 0.067
G19D | -0.321 ± 0.16
N12K | -0.004 ± 0.063
N12M | -0.316 ± 0.083
N12V | -0.306 ± 0.06
N12S | -0.022 ± 0.047
N12R | 0.027 ± 0.039
N12P | -0.186 ± 0.073
N12L | -0.35 ± 0.061
N12T | -0.053 ± 0.062
R20V | -0.031 ± 0.043
R20Y | 0.019 ± 0.093
R20E | 0.012 ± 0.062
R20A | 0.028 ± 0.038
R20P | 0.155 ± 0.053
R20S | -0.082 ± 0.043

Variant | abundance fitness
R20M | -0.138 ± 0.064
R20D | 0.042 ± 0.12
R20I | -0.074 ± 0.12
R20H | 0.139 ± 0.1
R20L | -0.035 ± 0.04
R20F | 0.1 ± 0.1
R20C | -0.04 ± 0.068
R20G | -0.173 ± 0.038
R20W | -0.188 ± 0.053
R20N | 0.27 ± 0.09
R20K | 0.048 ± 0.071
R20Q | -0.008 ± 0.064
R20T | -0.167 ± 0.067
L13C | -0.21 ± 0.12
L13H | -0.051 ± 0.082
L13N | -0.228 ± 0.12
L13K | 0.062 ± 0.054
L13R | -0.082 ± 0.032
L13V | -0.404 ± 0.051
L13D | -0.012 ± 0.089
L13T | -0.181 ± 0.068
L13F | -0.107 ± 0.19
L13A | -0.069 ± 0.043
L13I | -0.076 ± 0.12

Variant | abundance fitness
L13Y | -0.07 ± 0.14
L13M | 0.05 ± 0.06
L13S | -0.041 ± 0.054
L13W | -0.265 ± 0.04
L13G | -0.477 ± 0.038
L13E | -0.06 ± 0.05
L13P | -0.959 ± 0.2
L13Q | 0.14 ± 0.063
Q21H | -0.032 ± 0.083
Q21D | -0.134 ± 0.076
Q21F | -0.236 ± 0.068
Q21S | -0.09 ± 0.038
Q21W | -0.339 ± 0.054
Q21P | -0.568 ± 0.066
Q21L | -0.437 ± 0.04
Q21N | 0.052 ± 0.078
Q21I | -0.844 ± 0.22
Q21E | -0.09 ± 0.041
Q21T | -0.207 ± 0.046
Q21R | -0.012 ± 0.033
Q21G | -0.106 ± 0.041
Q21K | 0.081 ± 0.047
Q21C | -0.281 ± 0.061
Q21M | -0.322 ± 0.054

Variant | abundance fitness
I17D | -0.506 ± 0.15
I17W | -0.663 ± 0.1
I17Q | -0.878 ± 0.14
I17G | -0.585 ± 0.081
I17V | -0.106 ± 0.05
I17A | -0.715 ± 0.083
I17R | -0.98 ± 0.087
I17F | -0.177 ± 0.13
I17S | -0.733 ± 0.091
I17E | -0.782 ± 0.2
I17C | -0.928 ± 0.26
I17M | -0.562 ± 0.086
I17P | -1.17 ± 0.24
I17Y | -0.665 ± 0.2
I17T | -0.6 ± 0.11
I17K | -1.09 ± 0.29
I17H | -0.831 ± 0.2
I17L | -0.022 ± 0.039
C16Q | 0.01 ± 0.055
C16D | -0.063 ± 0.12
C16W | -0.092 ± 0.05
C16A | 0.059 ± 0.049
C16R | 0.138 ± 0.033
C16Y | -0.209 ± 0.21

Variant | abundance fitness
C16L | -0.107 ± 0.048
C16T | 0.131 ± 0.063
C16H | -0.141 ± 0.094
C16P | -0.045 ± 0.065
C16E | -0.038 ± 0.059
C16I | 0.266 ± 0.1
C16G | -0.116 ± 0.042
C16M | 0.092 ± 0.076
C16K | 0.093 ± 0.079
C16S | -0.042 ± 0.051
C16F | -0.031 ± 0.15
C16V | -0.083 ± 0.049
I18W | -0.232 ± 0.047
I18V | -0.367 ± 0.046
I18L | -0.355 ± 0.041
I18T | -0.218 ± 0.054
I18H | -0.767 ± 0.15
I18K | -0.435 ± 0.07
I18F | -0.321 ± 0.13
I18D | -0.39 ± 0.091
I18N | -0.156 ± 0.13
I18C | -0.616 ± 0.097
I18S | -0.433 ± 0.059
I18E | -0.118 ± 0.068

Variant | abundance fitness
I18P | -0.808 ± 0.1
I18Q | -0.756 ± 0.087
I18A | -0.316 ± 0.048
I18R | -0.636 ± 0.049
I18G | -0.565 ± 0.077
I14G | -0.948 ± 0.089
I14V | -0.116 ± 0.042
I14T | -0.17 ± 0.09
I14M | -0.118 ± 0.07
I14P | -0.647 ± 0.14
I14D | -0.876 ± 0.14
I14K | -0.855 ± 0.23
I14A | -0.228 ± 0.055
I14L | -0.115 ± 0.055
I14S | -0.367 ± 0.067
I14N | -0.762 ± 0.26
I14W | -0.689 ± 0.11
I14C | -0.252 ± 0.088
I14R | -0.573 ± 0.072
I14F | -0.378 ± 0.17
I14Q | -0.73 ± 0.16
I14E | -0.769 ± 0.13
I14H | -0.485 ± 0.24
